Data published in IntAct's records for PubMed 28514442.

B1: WASH complex subunit 5 (Homo sapiens), Q12768 (parent)
chain: MLDFLAENNLCGQAILRIVSCGNAIIAELLRLSEFIPAVFRLKDRADQQKYGDIIFDFSYFKGPELWESKLDAKPELQDLDEEFRENNIEIVTRFYLAFQSVHKYIVDLNRYLDDLNEGVYIQQTLETVLLNEDGKQLLCEALYLYGVMLLVIDQKIEGEVRERMLVSYYRYSAARSSADSNMDDICKLLRSTGYSSQPGAKRPSNYPESYFQRVPINESFISMVIGRLRSDDIYNQVSAYPLPEHRSTALANQAAMLYVILYFEPSILHTHQAKMREIVDKYFPDNWVISIYMGITVNLVDAWEPYKAAKTALNNTLDLSNVREQASRYATVSERVHAQVQQFLKEGYLREEMVLDNIPKLLNCLRDCNVAIRWLMLHTADSACDPNNKRLRQIKDQILTDSRYNPRILFQLLLDTAQFEFILKEMFKQMLSEKQTKWEHYKKEGSERMTELADVFSGVKPLTRVEKNENLQAWFREISKQILSLNYDDSTAAGRKTVQLIQALEEVQEFHQLESNLQVCQFLADTRKFLHQMIRTINIKEEVLITMQIVGDLSFAWQLIDSFTSIMQESIRVNPSMVTKLRATFLKLASALDLPLLRINQANSPDLLSVSQYYSGELVSYVRKVLQIIPESMFTSLLKIIKLQTHDIIEVPTRLDKDKLRDYAQLGPRYEVAKLTHAISIFTEGILMMKTTLVGIIKVDPKQLLEDGIRKELVKRVAFALHRGLIFNPRAKPSELMPKLKELGATMDGFHRSFEYIQDYVNIYGLKIWQEEVSRIINYNVEQECNNFLRTKIQDWQSMYQSTHIPIPKFTPVDESVTFIGRLCREILRITDPKMTCHIDQLNTWYDMKTHQEVTSSRLFSEIQTTLGTFGLNGLDRLLCFMIVKELQNFLSMFQKIILRDRTVQDTLKTLMNAVSPLKSIVANSNKIYFSAIAKTQKIWTAYLEAIMKVGQMQILRQQIANELNYSCRFDSKHLAAALENLNKALLADIEAHYQDPSLPYPKEDNTLLYEITAYLEAAGIHNPLNKIYITTKRLPYFPIVNFLFLIAQLPKLQYNKNLGMVCRKPTDPVDWPPLVLGLLTLLKQFHSRYTEQFLALIGQFICSTVEQCTSQKIPEIPADVVGALLFLEDYVRYTKLPRRVAEAHVPNFIFDEFRTVL

Variants of: B1
Settings: with pcna_human PCNA

Effect of a mutation on the interaction, with no effect:
V626F
N471D
L619F
